Reference: patent US8034579B2, “Proteins with enhanced functionality and methods of making novel proteins using circular permutation” (Emory University, priority 2005, dated 2011)

Assays:
[1] = substrate: CCCC(=O)Oc1ccc([N+](=O)[O-])cc1; experiment: Initial rate of hydrolysis of p-nitrophenol butyrate (pNB), wild type; format: biochemical, Candida antarctica; conditions: other: wild type, 50 mM K-phosphate pH 7.5, room temperature
Excerpt: (§1) Kinetic analysis of protein variants: To examine the impact of circular permutation on catalysis eleven functional CALB variants with termini in or near the active site were selected for detailed kinetic characterization. The locations of the termini in these variants are shown on the structure of CALB in FIG. 6; the numbers correspond to the amino acid residue of the new terminus. Following overexpression in P. pastoris, the selected circularly permuted proteins were purified to homogeneity. The catalytic performance of these variants was determined in activity assays with two standard lipase substrates, measuring the initial rates of hydrolysis of the chromogenic substrate p-nitrophenol butyrate (pNB) and the fluorogenic substrate 6,8-difluoro-4-methylumbelliferyl (DiFMU) octanoate.
(§2) The overexpression and purification of wild type CALB was performed as described in Rotticci-Mulder, J. C. et al., Protein Expr Purif 2001, 21, (3), 386-92, which is hereby incorporated by reference. The same protocol was adopted for the isolation of circular permutation variants of CALB. Briefly, pPIC9-ca/B was linearized by SacI digestion and electroporated into P. pastoris cells (GS115). […]
(§3) Lipase activity was determined by measuring the initial hydrolysis rate of p-NB and DiFMU octanoate at room temperature on a Synergy-HT microtiterplate reader (Bio-Tek Instruments, Winooski, Vt.). Stock solutions of p-NB (200 mM) and DiFMU octanoate (3 mM) were prepared in DMSO. p-NB hydrolysis over a substrate range of 0-1.6 mM was measured in 50 mM K-phosphate buffer (pH 7.5) at 400 nm ( ? for p-NB=13260 M^1 cm^−1) as described in Bender, M. L. et al., J Am Chem Soc 1968, 90, (1), 201-7, which is hereby incorporated by reference. The rate of DiFMU octanoate hydrolysis was determined by measuring the DiFMU formation over a substrate range of 0-12 μM in 50 mM K-phosphate buffer (pH 7.0) at an excitation/emission wavelength 360/460 nm. Kinetic constants were calculated by fitting the initial rates to the Michaelis-Menten equation using the Origin® software (version 7; OriginLab Corporation).

[2] = substrate: CCCCCCCC(=O)Oc1c(F)cc2c(C)cc(=O)oc2c1F; experiment: Initial rate of hydrolysis of DiFMU octanoate, wild type; format: biochemical, Candida antarctica; conditions: other: wild type, 50 mM K-phosphate pH 7.0, room temperature
Excerpt: as §1, §2, §3

B1: Candida antarctica lipase B (CALB), wild type, SEQ ID NO: 2, L1/P317 (Moesziomyces antarcticus) (protein)
chain: LPSGSDPAFSQPKSVLDAGLTCQGASPSSVSKPILLVPGTGTTGPQSFDSNWIPLSAQLGYTPCWISPPPFMLNDTQVNTEYMVNAITTLYAGSGNNKLPVLTWSQGGLVAQWGLTFFPSIRSKVDRLMAFAPDYKGTVLAGPLDALAVSAPSVWQQTTGSALTTALRNAGGLTQIVPTTNLYSATDEIVQPQVSNSPLDSSYLFNGKNVQAQAVCGPLFVIDHAGSLTSQFSYVVGRSALRSTTGQARSADYGITDCNPLPANDLTPEQKVAAAALLAPAAAAIVAGPKQNCEPDLMPYARPFAVGKRTCSGIVTP
Km [1]: 410 ± 40 µM
kcat [1]: 5.08 ± 0.167 s⁻¹
kcat/Km [1]: 12300 M⁻¹ s⁻¹
Km [2]: 2.6 ± 0.3 µM
kcat [2]: 0.033 ± 0.0017 s⁻¹
kcat/Km [2]: 13000 M⁻¹ s⁻¹
